Target: T1, Myc-tagged Δ473-534 (Xenopus, UniProt P70056 61-472)
T1 construct: also called deletion of an additional 33 C-terminal amino acids
T1 sequence: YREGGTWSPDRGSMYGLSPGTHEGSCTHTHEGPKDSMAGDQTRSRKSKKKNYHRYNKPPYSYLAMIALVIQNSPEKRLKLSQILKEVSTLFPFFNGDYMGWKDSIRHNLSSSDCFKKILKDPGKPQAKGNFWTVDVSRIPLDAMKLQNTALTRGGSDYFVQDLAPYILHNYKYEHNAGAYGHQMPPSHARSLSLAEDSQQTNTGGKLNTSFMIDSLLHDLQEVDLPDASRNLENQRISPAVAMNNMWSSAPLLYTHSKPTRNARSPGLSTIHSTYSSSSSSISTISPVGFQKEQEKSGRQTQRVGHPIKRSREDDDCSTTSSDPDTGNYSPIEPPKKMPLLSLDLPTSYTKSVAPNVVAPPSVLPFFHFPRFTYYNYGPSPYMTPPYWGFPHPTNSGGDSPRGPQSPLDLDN
Assay: FAST-1 deletion mutant co-expressed with tagged Smad in Xenopus embryos

B1: Myc-tagged Smad2 (other, not shown: small tags and cut ends)
chain: MSSILPFTPPVVKRLLGWKKSASGTTGAGGDEQNGQEEKWCEKAVKSLVKKLKKTGQLDELEKAITTQNCNTKCVTIPSTCSEIWGLSTANTIDQWDTTGLYSFSEQTRSLDGRLQVSHRKGLPHVIYCRLWRWPDLHSHHELKAIENCEYAFNLKKDEVCVNPYHYQRVETPVLPPVLVPRHTEILTELPPLDDYTHSIPENTNFPAGIEPQSNYIPETPPPGYISEDGETSDQQLNQSMDTGSPAELSPSTLSPVNHNLDLQPVTYSEPAFWCSIAYYELNQRVGETFHASQPSLTVDGFTDPSNSERFCLGLLSNVNRNATVEMTRRHIGRGVRLYYIGGEVFAECLSDSAIFVQSPNCNQRYGWHPATVCKIPPGCNLKIFNNQEFAALLAQSVNQGFEAVYQLTRMCTIRMSFVKGWGAEYRRQTVTSTPCWIELHLNGPLQWLDKVLTQMGSPSVRCSSMS
notes: Expressed from injected RNA in Xenopus embryos; also called Myc-Smad2
Question: Does B1 bind?
Answer: Result: no binding

From patent US6365711 (Harvard, dated 2002)
